Results: US20040091907A1 (SUGEN, published 2004)

Key:
[1] = target: T1, Glutathione-s-transferase (GST) fused PAK4 (residues 291-591) (human, UniProt O96013 291-591); assay: phage display screen, GST-PAK4 (291-591) on glutathione beads, MCF7 cDNA library
T1 construct: Bait of the phage display screen; the paragraphs that tell the kinase results say only PAK4; also called PAK4 kinase; not shown: glutathione-S-transferase (GST), protein product of the SJ26 gene, fusion partner from pGEX-4T
Text: The phage display hits isolated in the screen corresponded to in-frame fusions derived from several distinct genes. One fragment was derived from the Maguin-2-like gene. Two other hits were derived from the GEF-H1S splice variant of GEF-H1.
This expression vector allowed production and expression of a gene appropriately inserted, as a fusion protein where the fusion partner is the protein product of the SJ26 gene glutathione-s-transferase (GST). The fusion partner GST allows for affinity immobilization on glutathione sepharose 4B matrix (Amersham Biosciences Cat # 17-0756-01) also known as glutathione beads. The PAK4 polypeptide immobilized to these beads was incubated with a lysate containing phage particles expressing a library of peptides derived from MCF7 (breast carcinoma tissue culture cells available from ATCC, USA) cDNA. See, Zozulya et al., Nat. Biotechnol., 17(12): p. 1193-8, 1999. Upon sequencing many of the candidates obtained in this screen, the GEF-H1S polypeptide was discovered in the clone designated 13-8. Sequencing was performed on a ABI prizm machine using standard methods provided by the manufacturer (Applied Biosystems, USA).

[2] = target: T2, amino-terminal regulatory domain of PAK4 alone (amino acids 1-309) (human, UniProt O96013 1-309); assay: GST pull-down on glutathione beads from 293T lysate, myc immunoblot
T2 construct: Over-expressed in 293T cells, used as cell lysate
T2 sequence (looked up): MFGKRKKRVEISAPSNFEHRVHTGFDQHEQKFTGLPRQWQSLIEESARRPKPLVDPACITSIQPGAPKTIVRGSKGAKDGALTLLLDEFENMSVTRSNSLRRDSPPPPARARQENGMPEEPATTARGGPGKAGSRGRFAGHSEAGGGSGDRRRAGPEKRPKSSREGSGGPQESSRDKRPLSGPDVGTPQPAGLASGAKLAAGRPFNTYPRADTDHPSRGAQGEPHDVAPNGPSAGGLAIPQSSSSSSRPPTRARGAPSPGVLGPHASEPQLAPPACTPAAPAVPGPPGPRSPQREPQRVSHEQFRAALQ
Experimental: (§1) An equivalent amount of beads and excess lysates (500 ug) were used. Eluates of beads and total lysates were analysed by SDS-PAGE and immunoblotted with myc or GEF-H1 antiserum; (c) represents a PAK4 gene schematic outlining the regions of PAK4 used to identify the GEF-H1 interaction domain (GID). d, alignment of the GID defined by the minimal binding region of PAK4 with PAK5 and PAK6.
These fusion proteins were bound to glutathione beads and utilized in binding assays with 293T lysates expressing exogenous PAK4.
The GST immobilized GEF-H1S polypeptide was used to conduct immunoprecipitation from the 293T cell extracts. The resulting protein complexes on the beads were identified by separating on SDS-PAGE followed by Western blotting to identify proteins that are present. The Western blot technique (Renart et al., Methods Enzymol., 104:455-60, 1984) is universally used to identify proteins using specific immunoreagents like antibodies. […] PAK4 was not present after immunoprecipitation with immobilized fusion partner GST. This interaction was limited by the presence or absence of GEF-H1S.

GFP-GEF-H1 = target: T3, GFP-GEF-H1 (human, UniProt Q92974 93-986); assay: biotinylated peptide on streptavidin beads, pull-down from 293T lysate, GEF-H1 immunoblot
T3 construct: The legend says GFP-GEF-H1, the text GEF-H1S; also called GEF-H1S; EGFP-GEF-H1S; not shown: EGFP from vector pEGFP-C1 (Clontech)
T3 sequence: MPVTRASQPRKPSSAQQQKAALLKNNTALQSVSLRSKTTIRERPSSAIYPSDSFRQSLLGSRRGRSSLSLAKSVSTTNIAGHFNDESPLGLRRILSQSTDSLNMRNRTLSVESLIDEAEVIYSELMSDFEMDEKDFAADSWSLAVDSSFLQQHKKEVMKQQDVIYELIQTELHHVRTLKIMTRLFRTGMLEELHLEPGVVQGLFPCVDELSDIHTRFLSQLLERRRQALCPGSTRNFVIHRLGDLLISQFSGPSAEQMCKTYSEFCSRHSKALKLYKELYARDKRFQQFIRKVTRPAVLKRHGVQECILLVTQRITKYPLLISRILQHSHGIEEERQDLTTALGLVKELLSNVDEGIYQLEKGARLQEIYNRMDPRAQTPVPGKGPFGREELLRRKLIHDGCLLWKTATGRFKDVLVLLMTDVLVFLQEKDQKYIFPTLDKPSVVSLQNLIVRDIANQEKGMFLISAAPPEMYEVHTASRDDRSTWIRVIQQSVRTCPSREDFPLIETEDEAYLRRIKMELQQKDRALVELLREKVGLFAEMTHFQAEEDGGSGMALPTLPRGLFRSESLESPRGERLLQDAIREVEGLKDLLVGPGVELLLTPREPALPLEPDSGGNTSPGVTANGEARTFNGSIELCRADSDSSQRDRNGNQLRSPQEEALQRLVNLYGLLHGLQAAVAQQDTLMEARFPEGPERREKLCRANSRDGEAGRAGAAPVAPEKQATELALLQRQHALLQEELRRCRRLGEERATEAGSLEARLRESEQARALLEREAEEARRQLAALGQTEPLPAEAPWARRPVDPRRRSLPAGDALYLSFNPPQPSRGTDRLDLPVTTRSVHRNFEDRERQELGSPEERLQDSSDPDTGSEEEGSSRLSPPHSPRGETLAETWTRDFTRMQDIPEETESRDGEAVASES
Experimental: as §1, with “FIG. 1: Direct binding of GEF-H1 to PAK4. […] An” for “An”
Biotinylated peptides derived from the N-terminal region of PAK4 sequence were used to further map the GEF-H1 binding site. […] Based on the homology within the GID of PAK4 it is possible that PAK5 and PAK6 also interact with GEF-H1 or related proteins.

B1: GEF-H1S polypeptide of phage display clone 13-8 (amino acids 763-921) (other)
chain: LRESEQARALLEREAEEARRQLAALGQTEPLPAEAPWARRPVDPRRRSLPAGDALYLSFNPPQPSRGTDRLDLPVTTRSVHRNFEDRERQELGSPEERLQDSSDPDTGSEEEGSSRLSPPHSPRGETLAETWTRDFTRMQDIPEETESRDGEAVASES
notes: Two hits came from GEF-H1S; only this one has stated limits; also called phage clone 13.8; GEF-H1 phage display hit; not shown: phage display fusion partner
- binding result [1]: binds

B2: GST-GEF-H1S (aa763-921) (other)
chain: B1 chain
notes: not shown: glutathione-S-transferase (GST), protein product of the SJ26 gene, fusion partner from pGEX-4T
- binding result [2]: no binding

B3: biotinylated PAK4 peptide, amino acids 291-355 (peptide, UniProt O96013 291-355, looked up)
peptide: SPQREPQRVSHEQFRAALQLVVDPGDPRSYLDNFIKIGEGSTGIVCIATVRSSGKLVAVKKMDLR
modifications: biotinylated (position not given)
notes: Linked to streptavidin beads
- binding result (GFP-GEF-H1): no binding
